The target in this assay is ACLYana-3-pTza peptide (AGAG-3-pTza-AGAG). The assay is described as follows: BLI binding kinetics of 3-pHis Fabs with cognate pTza peptide. Here is the method:
Biolayer interferometry (BLI) studies were performed to determine the relative affinity of pHis Fabs to in situ phosphorylated His peptides versus the phosphomimetic substrates. The N-terminally biotinylated peptides were immobilized on streptavidin biosensors and the rate of association (ka) and dissociation (kd) were determined by varying the pHis Fab concentration. Equilibrium dissociation constants (KD) were determined by fitting the experimental data to a 1:1 Langmuir binding model. ACLYana-1-pTza and ACLYana-3-pTza peptides were used to determine affinity to 1-pHis and 3-pHis Fabs, respectively (Fig. 3 A–E and Table 1). […] The two isomers were separated from each other by passing the reaction through affinity columns containing 1-pHis mAbs using SC1-1 or SC50-3 IgGs or 3-pHis mAbs using SC39-4, SC44-8, and SC56-2 IgGs. The eluates thus contained either predominantly 1-pHis or 3-pHis peptides. These peptides were used to determine the affinity to their respective isomer class of pHis Fabs (Fig. 3 F–J, Table 1, and SI Appendix, Fig. S5). […] This experimental observation is well supported by the higher number of hydrogen bonds that support the SC44-8:3-pTza interaction compared to other pHis Fabs (SI Appendix, Table S5). […] There are at least three reasons for the lower affinity of the mAbs for pHis peptides compared to pTza peptides: The continuous hydrolysis of phosphate from the pHis peptides during the course of the experiment (SI Appendix, Fig. S6), a reduction in the number of hydrogen bond interactions due to one less nitrogen in the imidazole ring compared to triazolyl ring (Fig. 4 and SI Appendix, Fig. S8), and inherently different electronic properties of the imidazole and triazolyl rings in His and Tza, respectively ([20]).
Fig. 3. Binding kinetics of pHis Fabs with cognate pTza and pHis peptides. BLI studies of immobilized peptides (ACLYana-1/3-pTza and phosphorylated ACLYana) with varying concentrations of the pHis Fabs were carried out in triplicate on an Octet Red96e instrument (FortéBio). SC1-1 (A) and SC50-3 (B) pHis Fab interaction with their ACLYana-1-pTza peptides. SC39-4 (C), SC44-8 (D), and SC56-2 (E) pHis Fabs interactions with ACLYana-3-pTza peptides. SC1-1 (F), SC50-3 (G), SC39-4 (H), SC44-8 (I), and SC56-2 (J) pHis Fabs interactions with their affinity-purified ACLYana-pHis peptides are represented, Right. The experimental data are represented in the black dashed lines and the nonlinear least-squares fitting was represented in the red continuous lines. The χ^2 for the goodness of fit is under 1.0 for the all the plots.
The binding kinetics of pHis Fabs with the peptides (pTza and pHis) were evaluated with an Octet RED96e (FortéBio). Streptavidin-coated biosensors (FortéBio) were presoaked in buffer containing 50 mM Hepes pH 8.0, 150 mM NaCl, 0.05% Tween-20, and 0.2% BSA for 15 min. The biotinylated pTza peptides or pHis peptides (20 nM) with and without phosphoramidate treatment were coated onto these streptavidin biosensors and analyzed for their binding to varying concentrations of the pHis Fabs with an association time of 120 s and dissociation time of 200 s. The entire set of experiments was repeated three times. The data were analyzed using the Octet software (FortéBio) and the rates of association and dissociation were obtained by global fitting data to the 1:1 Langmuir interaction model.
(In general: In BLI a coated tip is dipped into the sample, and binding shifts an interference pattern.)

The mark [1] stands for this setting: BLI, immobilized biotinylated ACLYana-3-pTza, 1:1 Langmuir global fit, triplicate.

B1: SC44-8: Fab of rabbit 3-pHis-specific monoclonal antibody with proclivity for GpHAGA motif (antibody, V domains shown)
VH: QSVKESGRGLVQPGGSLTLTCTASGFSIDSYGFSWVRQAPGKGLEHIGYLTAGGRAFYASWAKSRSTITRNTNENTVTLKMTSLTAADTATYFCAKLGSGNPVAIWGPGTLVTVSS
VL: QVLTQTPSFTSAAVGGTVTINCQSSQSVWRNKNLAWYQQKPGQPPKRLIYAIATLDSGVPSRFSGSGSGTQFTLTISDVQCDDAATYYCVGHYGSENDAYYAFGGGTEVVVK
For B1, binding (BLI Octet RED96e, N-terminally biotinylated peptide (20 nM) on streptavidin biosensors, varying Fab concentration, 50 mM Hepes pH 8.0, 150 mM NaCl, 0.05% Tween-20, 0.2% BSA, association 120 s, dissociation 200 s, global fit 1:1 Langmuir, triplicate) was put at a Kd of 0.235 nM. Where the note is “BLI, 3-pTza peptide”, the “dissociation rate, times slower than the other pHis Fabs” value is reported as 70 times. Under setting [1], the ka is 156000 ± 457 M⁻¹ s⁻¹ and the kd was 3.66e-05 ± 7.5e-07 s⁻¹.

The values are drawn from article PMC8017925, “Structural basis for differential recognition of phosphohistidine-containing peptides by 1-pHis and 3-pHis monoclonal antibodies” (Proceedings of the National Academy of Sciences of the …, 2021).
